Measured values: patent US20230047413A1 (Janssen / Centocor, published 2023)
Numbering of substitutions follows the chain as printed. Each block holds one binder with its values, some of them ahead of it.

Assays:
[1] = target: T1, PHF-tau (paired helical filament tau isolated from Alzheimer's disease brain) (human, UniProt P10636-8 2-441, limits assumed, hyper-phosphorylated, aggregated; sites not listed for the preparation); test: SPR ProteOn, PHF-tau
T1 construct: also called enriched PHF-tau; ePHF-tau

[2] = target: T2, tau phospho-peptide of the direct ELISA of Example 11; test: direct ELISA, peptide coated
T2 construct: also called pT217 peptide; pT212/pT217 peptide
Description: (§1) Binding to tau phospho-peptide was analysed by ELISA where peptide (10 ng/mL) was directly coated to the plate overnight. […] After incubation with antibodies, plates were washed and 50 μL per well of HRPO labelled anti-Fab antibody (Jackson Immunoresearch laboratories) (diluted 1:10000 in blocking buffer). After another washing step detection was performed with “One step” TMB (Thermo Scientific) according to the manufacturers' instructions. Plates were analysed in EnVision® 2102 Multilabel Reader (Perkin Elmer, Waltham, Mass., USA). Binding curves were generated using GraphPad Prism7.0 software.

Peptide-2 [3] = target: T3, Peptide-2 (human, phosphothreonine 212, phosphothreonine 217 (tau 2N4R numbering); short chain biotin (SCBiot) and dPEG4 at the N-terminus; amide at the C-terminus); test: SPR ProteOn, mAb captured, peptide as analyte
T3 construct: also called pT212/pT217-tau peptide (Peptide-2)
Description: (§2) A subset of HFA-PT3 monoclonal antibody variants, selected based on biophysical characterization and ELISA binding to PHF, were analyzed by Surface Plasmon Resonance (SPR) with a ProteOn XPR36 for binding to the following phosphopeptides: pT212/pT217-tau peptide (Peptide-2, SEQ ID NO: 48) and pT212-tau peptide (Peptide-8, SEQ ID NO: 54). All experiments were performed at 25° C. using PBST, pH 7.4, (Bio-Rad Cat#176-2720) as both running buffer and sample dilution buffer.
(§3) Monoclonal antibody/Peptide binding. […] Anti-human IgG was amine-coupled to the chip surface using EDC/NHS, then washed with ethanolamine. Antibodies were diluted to 2 μg/mL in PBST and injected on the surface for 5 min at 30 μL/min to achieve a maximum density of 900-1000 RU. Peptides were injected as analytes at 60 μL/min for 3 min, followed by 5 min dissociation. Peptide-2 was diluted in PBST to generate a three-fold concentration series (0-30 nM) and measured in duplicate. Single measurements of monoclonal antibody binding to Peptide-8 were recorded over the concentration range 0-100 nM.
(§4) Data were double referenced by subtraction of the interspot response, and the curves generated by the buffer only injection. The chip surface was regenerated with 0.85% phosphoric acid, followed by PBST injection before the next antibody titration injection. Data processing and analysis were performed using instrument software. The data were fit using a simple Langmuir 1:1 binding model.

Peptide-2 [4] = target: T3, Peptide-2; test: SPR ProteOn, mAb captured, peptide as analyte; range of n=2
Description: as §2, §3, §4

[5] = target: T1, PHF-tau (paired helical filament tau …); test: SPR ProteOn, PHF-tau capture-coupled via HT7, bivalent model
Description: (§5) A subset of HFA-PT3 monoclonal antibodies was tested for binding to PHF-tau isolated from Alzheimer's disease brain. All interactions were studied at 25° C. using PBS pH 7.4, supplemented with 3 mM EDTA, and 0.005% Tween 20 as running or system buffer. HT7 (Pierce, catalog #MN1000), a mouse anti-tau antibody, was used as a positive control.
(§6) The interaction of anti-tau monoclonal antibodies with PHF-tau was analyzed by ProteOn using a biosensor surface prepared by capture-coupling PHF-tau using HT7 as the capture reagent. PHF-tau was prepared by 2-times centrifugation at 5000×g at 5° C. for 10 min; the supernatant from the second centrifugation was then diluted 1/40 in running buffer. To prepare the chip, HT7 was covalently immobilized to the surface of a GLC (ProteOn) sensor chip using the manufacturer's instructions for amine-coupling chemistry (˜5000 response units (RU)). The coupling buffer was 10 mM sodium acetate, pH 4.5. After HT7 immobilization, PHF-tau was injected and captured (˜300 RU) by HT7. After capture, PHF-tau was covalently immobilized to the sensor chip by activation of the chip using the manufacturer's instructions for amine-coupling chemistry. Remaining reactive sites were blocked by the injection of ethanolamine. After preparation and stabilization of the PHF-tau-modified surface and reference surface (containing no antigen), the anti-tau antibodies were diluted in the running buffer and injected in solution (0.12-75 nM in 5-fold dilutions). The association was monitored for 3 minutes (120 μL injected at 40 μL/min). The dissociation was monitored for 15 minutes. Regeneration of the sensor surface was performed using 10 mM Gly pH 2.0. The data for monoclonal antibodies were fit using a bivalent binding model where the apparent affinity (KD) was reported as the ratio of koff/kₒₙ. A Langmuir 1:1 binding model was used for kinetics analysis of Fabs.

[6] = target: T1, PHF-tau (paired helical filament tau …); test: as above; remark: listed apart in the source
Description: Affinity matured monoclonal antibodies were tested for binding to PHF-tau isolated from Alzheimer's disease brain.
A GLC sensor chip was covalently immobilized with a mouse anti-tau antibody, HT7 (ThermoFisher, catalog# MN1000) using the vendor recommended protocol for amine-coupling chemistry (˜5000 response units, RU). The coupling buffer was 10 mM, pH 4.5 sodium acetate. PHF-tau was prepared by 2-times centrifugation at 5000×g in 5° C. for 10 min. […] After capture-coupling, the surface was activated and deactivated to generate a homogenous PHF-tau surface for antibody binding studies. The anti-tau antibodies and their Fabs (prepared in running buffer, 0.024-75 nM at 5-fold dilutions) were injected at 50 μL/min over the PHF-tau surface to measure binding. The association and dissociation profiles were monitored for 4 minutes and 2 hours, respectively. After dissociation, the sensor chip was regenerated using multiple injections of 10 mM Glycine pH 2.0 and the running buffer. A reference surface (without any PHF-tau) was used to monitor non-specific binding of the injected mAbs or Fabs. HT7 antibody was used as a positive control. The binding sensorgrams for mAbs were fit using a bivalent binding model where the apparent affinity or avidity-driven binding (KD) was reported as the ratio of off-rate and on-rate (koff/kₒₙ). A 1:1 Langmuir binding model was used for kinetics analysis of Fabs.

Peptide-8 [7] = target: T4, Peptide-8 (human, phosphothreonine 212 (tau 2N4R numbering); SCBiot and dPEG4 at the N-terminus; amide at the C-terminus); test: SPR ProteOn, mAb captured by anti-human Fc, peptide as analyte
T4 construct: also called pT212-tau peptide (Peptide-8)
Description: as §2, §3, §4

Peptide-2 [8] = target: T3, Peptide-2; test: SPR ProteOn, mAb captured, peptide as analyte; range of n=2; upper end of n=2 range
Description: as §2, §3, §4

[9] = target: T2, tau phospho-peptide of the direct ELISA …; test: direct ELISA on plate-coated tau phospho-peptide (10 ng/mL), detection with HRPO-labelled anti-Fab antibody
Description: as §1

[10] = target: T1, PHF-tau (paired helical filament tau …); test: SPR ProteOn, PHF-tau on chip
Peptide-2 [11] = target: T3, Peptide-2; test: SPR ProteOn, peptide captured, Fab as analyte
Description: as §2
(§7) Fab/peptide binding. Biotinylated peptide was captured on a neutravidin-coated NLC biosensor chip pre-conditioned with PBST, and Fab was flowed over the surface to measure kinetic parameters. Approximately 5-10 RU of peptide was captured on the chip surface by diluting peptide to 10 ng/mL in PBST and injecting over the flow channels at 30 μL/min for 100 s. Serial dilutions of PT3 Fab (1.1 nM to 90 nM) were injected at 60 μL/min for 3 minutes (association phase), followed by 300 s of buffer only (dissociation phase).
as §4

[12] = target: T1, PHF-tau (paired helical filament tau …); test: SPR ProteOn, PHF-tau capture-coupled via HT7, 1:1 model
Description: as §5, §6

Peptide-2 [13] = target: T3, Peptide-2; test: SPR ProteOn, peptide captured, Fab as analyte; range of n=2
Description: as §2, §7, §4

Peptide-2 [14] = target: T3, Peptide-2; test: SPR ProteOn, peptide captured, Fab as analyte; range of n=2; upper end of n=2 range
Description: as §2, §7, §4

Peptide-8 [15] = target: T4, Peptide-8; test: SPR ProteOn, mAb captured by anti-human Fc, peptide as analyte; poor data fit
Description: as §2, §3, §4

T3 sequence (peptide, as listed by the source): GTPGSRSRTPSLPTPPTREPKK
T1 sequence (P10636 other isoform, or with tags, fused parts or gaps limits assumed): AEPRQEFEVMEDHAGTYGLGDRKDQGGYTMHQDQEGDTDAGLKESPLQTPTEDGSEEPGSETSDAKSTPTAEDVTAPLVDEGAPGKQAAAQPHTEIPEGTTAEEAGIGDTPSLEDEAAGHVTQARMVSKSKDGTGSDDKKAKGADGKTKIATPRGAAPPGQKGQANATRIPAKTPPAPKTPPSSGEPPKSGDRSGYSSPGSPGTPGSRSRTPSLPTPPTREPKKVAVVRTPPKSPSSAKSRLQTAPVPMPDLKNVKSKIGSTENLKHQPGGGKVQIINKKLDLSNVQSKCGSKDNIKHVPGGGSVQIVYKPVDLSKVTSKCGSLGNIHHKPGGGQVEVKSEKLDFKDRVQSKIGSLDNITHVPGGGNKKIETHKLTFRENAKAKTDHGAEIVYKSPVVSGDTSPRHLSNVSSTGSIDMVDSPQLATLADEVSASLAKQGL

Kd [1]: 0.322 nM
koff [1]: 6.47e-05 s⁻¹
kon [1]: 201000 M⁻¹ s⁻¹
B1: PT1 mAb (hyb) (antibody, V domains shown)
VH: QVQLQQSGTELMKPGASVKISCKATGYTFSSSWMGWVKQRPGHGLEWIGDILPGSGGTNYNERFKGKASFTAETSSNTAYMQLSSLTSEDSAVYYCVRSYYDYDRFANWGQGTLVTVSA
VL: DIVMTQAAPSVPVTPGESVSISCRSSESLLHSNGNTYLYWFLQRPGQSPQLLIYRMSNLASGVPDRFSGSGSGTAFTLRISRVEAEDVGVYYCMQYLEYPLTFGAGTKLELK

EC50 [2]: 0.433 nM
Kd (Peptide-2 [3]): 0.19 nM
koff (Peptide-2 [3]): 0.000826 s⁻¹
kon (Peptide-2 [3]): 5e+06 M⁻¹ s⁻¹
Kd (Peptide-2 [4]): 0.125 to 0.255 nM
koff (Peptide-2 [4]): 0.000788 s⁻¹
kon (Peptide-2 [4]): 3.1e+06 M⁻¹ s⁻¹
Kd [5]: 0.027 nM
koff [5]: 2.93e-05 s⁻¹
kon [5]: 1.07e+06 M⁻¹ s⁻¹
Kd [6]: 0.0062 nM
koff [6]: 1.17e-05 s⁻¹
kon [6]: 1.89e+06 M⁻¹ s⁻¹
Kd (Peptide-8 [7]): 26.8 nM
koff (Peptide-8 [7]): 0.023 s⁻¹
kon (Peptide-8 [7]): 856000 M⁻¹ s⁻¹
koff (Peptide-2 [8]): 0.000863 s⁻¹
kon (Peptide-2 [8]): 6.9e+06 M⁻¹ s⁻¹
EC50 (read off the curve) [9]: ~0.3 nM
B2: B296 (antibody, human IgG1, kappa, V domains shown)
VH: QVQLVESGGGVVQPGRSLRLSCAASGFTFSSYAMSWVRQAPGKGLEWVASISKGGNTYYADSVKGRFTISRDNSKNTLYLQMNSLRAEDTAVYYCARGWGDYGWFAYWGQVTLVTVSS
VL: DIQMTQSPSSLSASVGDRVTITCKASQDINRYLNWFQQKPGKAPKSLIYRANRLLDGVPSRFSGSGSGTDFTLTISSLQPEDFATYYCLQYDEFPLTFGQGTKLEIKR
notes: Humanized PT3, human IgG1/kappa; also called VH92/VL77; HFA-PT3

fold weaker KD than the mouse PT3 parent Fab B187 [10]: 3.3 fold
Kd (Peptide-2 [11]): 0.493 nM
koff (Peptide-2 [11]): 0.000329 s⁻¹
kon (Peptide-2 [11]): 710000 M⁻¹ s⁻¹
Kd [12]: 0.224 nM
koff [12]: 0.00023 s⁻¹
kon [12]: 1.02e+06 M⁻¹ s⁻¹
Kd (Peptide-2 [13]): 0.387 to 0.599 nM
koff (Peptide-2 [13]): 0.000304 s⁻¹
kon (Peptide-2 [13]): 507000 M⁻¹ s⁻¹
koff (Peptide-2 [14]): 0.000353 s⁻¹
kon (Peptide-2 [14]): 912000 M⁻¹ s⁻¹
B3: B326 (Fab of B252) (Fab, V domains shown)
VH: B2 VH with V11L, Q13K, R16G, V37I, A49S, S74A, T77S
VL: DIVMTQTPLSSPVTLGQPASISCKASQDINRYLNWLQQRPGQPPRLLIYRANRLLDGVPDRFSGSGAGTDFTLKISRVEAEDVGVYYCLQYDEFPLTFGQGTKLEIK
notes: also called B252 Fab

Kd (Peptide-2 [3]): 0.769 nM
koff (Peptide-2 [3]): 0.00274 s⁻¹
kon (Peptide-2 [3]): 4.71e+06 M⁻¹ s⁻¹
Kd (Peptide-2 [4]): 0.418 to 1.12 nM
koff (Peptide-2 [4]): 0.00246 s⁻¹
kon (Peptide-2 [4]): 2.21e+06 M⁻¹ s⁻¹
Kd [5]: 0.055 nM
koff [5]: 5.63e-05 s⁻¹
kon [5]: 1.02e+06 M⁻¹ s⁻¹
Kd (Peptide-8 [15]): 34.7 nM
koff (Peptide-8 [15]): 0.00757 s⁻¹
kon (Peptide-8 [15]): 218000 M⁻¹ s⁻¹
koff (Peptide-2 [8]): 0.00301 s⁻¹
kon (Peptide-2 [8]): 7.2e+06 M⁻¹ s⁻¹
B4: B280 (antibody, human IgG1, V domains shown)
VH: B2 VH with Q1E, V5L, V11L, R16G, A49S, R97K
VL: B3 VL
notes: Humanized (HFA) PT3 variant, human IgG1/kappa; also called VH91/VL80

fold improvement in on-rate compared to the parent antibody (B296) [10]: 3 fold
EC50 [2]: 0.0917 nM
Kd [6]: 0.002 nM
koff [6]: 1.27e-05 s⁻¹
kon [6]: 6.45e+06 M⁻¹ s⁻¹
EC50 (read off the curve) [9]: ~0.06 nM
B5: B809 (antibody, human IgG1, kappa, V domains shown)
VH: B2 VH with S30T, S52T, D101I
VL: B2 VL
notes: also called PT1B809
